Data reported in IntAct's records for PubMed 21108945.

Key:
nbn_human NBN [1] = target: nbn_human NBN (UniProt O60934)
nbn_human NBN [2] = target: nbn_human NBN (UniProt O60934); remark: listed apart in the source

Sequence of UniProt O60934 (O60934 whole entry): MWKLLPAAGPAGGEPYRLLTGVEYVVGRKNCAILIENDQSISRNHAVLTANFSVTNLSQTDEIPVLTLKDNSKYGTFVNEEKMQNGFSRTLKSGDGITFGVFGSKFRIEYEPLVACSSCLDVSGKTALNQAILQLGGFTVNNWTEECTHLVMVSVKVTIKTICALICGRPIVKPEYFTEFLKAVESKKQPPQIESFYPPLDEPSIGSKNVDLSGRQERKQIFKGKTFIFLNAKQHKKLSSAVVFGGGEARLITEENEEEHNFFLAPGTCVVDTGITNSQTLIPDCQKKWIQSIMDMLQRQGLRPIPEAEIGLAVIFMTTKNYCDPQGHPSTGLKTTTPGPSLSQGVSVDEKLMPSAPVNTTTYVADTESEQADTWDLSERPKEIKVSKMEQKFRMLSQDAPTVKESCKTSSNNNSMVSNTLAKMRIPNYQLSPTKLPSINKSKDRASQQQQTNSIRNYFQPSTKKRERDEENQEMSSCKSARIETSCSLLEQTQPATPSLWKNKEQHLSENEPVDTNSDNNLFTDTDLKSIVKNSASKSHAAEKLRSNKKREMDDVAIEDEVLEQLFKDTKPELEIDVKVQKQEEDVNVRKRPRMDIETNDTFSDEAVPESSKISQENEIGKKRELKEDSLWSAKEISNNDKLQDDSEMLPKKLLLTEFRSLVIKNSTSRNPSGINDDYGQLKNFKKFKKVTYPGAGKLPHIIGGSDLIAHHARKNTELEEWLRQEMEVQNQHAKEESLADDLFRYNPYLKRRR

“Histone acetyltransferase p300 (Homo sapiens), Q09472 S106A” was tested, and the “effect of a mutation on the interaction” value (nbn_human NBN [1]) was “decreasing interaction” and the “effect of a mutation on the interaction” value (nbn_human NBN [2]) was “disrupting interaction”.
